Key:
mass photometry = target: the molecule itself; test: mass photometry
[1] = target: human dynein_(MOTOR)^MT-B (microtubule-bound mutant motor domain) (human | T. thermophilus); test: mass photometry

B1: human LIS1-SNAP (natural protein)
chain: VLSQRQRDELNRAIADYLRSNGYEEAYSVFKKEAELDVNEELDKKYAGLLEKKWTSVIRLQKKVMELESKLNEAKEEFTSGGPLGQKRDPKEWIPRPPEKYALSGHRSPVTRVIFHPVFSVMVSASEDATIKVWDYETGDFERTLKGHTDSVQDISFDHSGKLLASCSADMTIKLWDFQGFECIRTMHGHDHNVSSVAIMPNGDHIVSASRDKTIKMWEVQTGYCVKTFTGHREWVRMVRPNQDGTLIASCSNDQTVRVWVVATKECKAELREHEHVVECISWAPESSYSSISEATGSETKKSGKPGPFLLSGSRDKTIKMWDVSTGMCLMTLVGHDNWVRGVLFHSGGKFILSCADDKTLRVWDYKNKRCMKTLNAHEHFVTSLDFHKTAPYVVTGSVDQTVKVWECR
Mass photometry
  stoichiometry N: 2
[1]
  stoichiometry N: 1 LIS1 dimer per dynein_(MOTOR) monomer

Source: article PMC10590275 (Nature structural & molecular biology, 2023)
